From patent US20140341881A1 (DERMADIS, published 2014)
Changes are numbered by the printed parent chain. Like-named read-outs stand apart in the source and are kept apart here. Values belong to the binder of their own block, whether it stands above or below them.

Columns and labels:
[1] = target: T1, human plasma kallikrein (PK) (human, UniProt P03952 20-638); assay: progress curve, ka with PK against ka with hK2
Method: Under these conditions, a fixed amount of enzyme (2 nM) was mixed with different concentrations of inhibitor (0-800 nM) and an excess of substrate (10 μM). Each reaction was made in reaction buffer (50 mM Tris pH 7.5, 150 mM NaCl, 0,05% Triton X-100, 0.01% BSA) at 25° C. for 45 min and the rate of product formation was measured using a FLₓ800 fluorescence 96-well microplate reader (Biotek, USA). In this model, inhibition is considered to be irreversible over the course of reaction and the progress of enzyme activity is expressed by product formation (P), beginning at a rate (vz) and is inhibited over time (t) at a first-order rate (kobs), rate constant that is dependent only on inhibitor concentration.
The rate of inhibitory reaction with variant ACTs was determined for each protease showing reactivity with these inhibitors. To that end, interaction of hK2 and recombinant serpins was measured under pseudo-first order conditions using progress curve method. hK2 (2 nM) and substrate Z-FR-AMC […] were added to varying amounts (20 n-800 nM) of inhibitors rACT_{8.20}, rACT_{5.18} and inhibitors rACT_{6.2}, rACT_{8.3}, rACT_{6.7}, rACT_{6.1} (data not shown). […] After determination of kobs, association constants (ka) were calculated using Kₘ of the proteases for their corresponding substrates (table VI). […]

human kallikrein 2 (hK2) [2] = target: T2, human kallikrein 2 (hK2) (human, UniProt P20151 25-261); assay: residual enzyme activity against [I]o/[E]o, fluorogenic substrate
T2 construct: two preparations treated as one molecule; also called kallikrein hK2

[3] = target: T1, human plasma kallikrein (PK); assay: as above
human kallikrein 2 (hK2) [4] = target: T2, human kallikrein 2 (hK2); assay: progress curve, pseudo-first order, fluorogenic substrate
[5] = target: T1, human plasma kallikrein (PK); assay: as above
[6] = target: T3, prostate specific antigen (PSA, hK3) (human, UniProt P07288 25-261); assay: cell-based or functional assay
[7] = target: urokinase plasminogen activator (uPA) (UniProt P00749 21-431, limits assumed); assay: cell-based or functional assay
human kallikrein 2 (hK2) [8] = target: T2, human kallikrein 2 (hK2); assay: cell-based or functional assay
[9] = target: T1, human plasma kallikrein (PK); assay: cell-based or functional assay
human kallikrein hK1 = human kallikrein hK1 (human, UniProt P06870 25-262); assay: cell-based or functional assay
[10] = target: T4, human neutrophil elastase (HNE) (human, UniProt P08246 30-247, limits assumed); assay: cell-based or functional assay
T4 sequence (looked up): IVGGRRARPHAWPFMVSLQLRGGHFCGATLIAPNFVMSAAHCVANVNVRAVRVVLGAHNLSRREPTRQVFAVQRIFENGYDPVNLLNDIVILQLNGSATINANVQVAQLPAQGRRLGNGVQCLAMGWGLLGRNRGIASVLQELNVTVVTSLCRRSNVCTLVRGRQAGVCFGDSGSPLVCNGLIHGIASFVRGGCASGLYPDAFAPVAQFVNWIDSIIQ

[11] = target: T5, human kallikrein 14 (hK14) (human, UniProt Q9P0G3 25-251, limits assumed); assay: cell-based or functional assay
T5 sequence (looked up): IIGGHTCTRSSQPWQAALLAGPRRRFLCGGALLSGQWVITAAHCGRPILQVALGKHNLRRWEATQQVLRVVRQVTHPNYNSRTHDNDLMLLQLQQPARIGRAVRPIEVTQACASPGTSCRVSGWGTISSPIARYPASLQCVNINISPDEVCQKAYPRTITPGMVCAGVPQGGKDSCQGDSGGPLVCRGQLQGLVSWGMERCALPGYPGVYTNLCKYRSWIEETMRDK

[12] = target: T1, human plasma kallikrein (PK); assay: cell-based or functional assay; remark: listed apart in the source
human kallikrein 8 (hK8) [13] = target: T6, human kallikrein 8 (hK8) (human, UniProt O60259 33-260); assay: cell-based or functional assay
T6 sequence (looked up): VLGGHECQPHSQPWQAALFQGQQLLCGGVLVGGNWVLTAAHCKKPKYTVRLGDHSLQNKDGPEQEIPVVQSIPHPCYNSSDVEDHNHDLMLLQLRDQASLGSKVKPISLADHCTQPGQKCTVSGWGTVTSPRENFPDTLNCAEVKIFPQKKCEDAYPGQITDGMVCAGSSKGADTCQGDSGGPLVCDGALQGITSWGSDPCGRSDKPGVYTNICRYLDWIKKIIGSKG

thrombin = assay: cell-based or functional assay
[14] = target: T7, human chymotrypsin (Chtr) (human, UniProt P17538 19-263); assay: cell-based or functional assay
T7 sequence (P17538 19-263): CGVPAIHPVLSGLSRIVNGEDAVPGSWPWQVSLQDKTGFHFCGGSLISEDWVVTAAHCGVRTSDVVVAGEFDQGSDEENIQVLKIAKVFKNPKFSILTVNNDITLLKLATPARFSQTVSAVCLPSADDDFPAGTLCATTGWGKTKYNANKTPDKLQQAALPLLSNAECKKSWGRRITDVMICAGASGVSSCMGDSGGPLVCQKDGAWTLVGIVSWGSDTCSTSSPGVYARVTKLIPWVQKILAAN

[15] = target: T5, human kallikrein 14 (hK14); assay: progress curve
[16] = target: T1, human plasma kallikrein (PK); assay: progress curve
[17] = target: T7, human chymotrypsin (Chtr); assay: progress curve
[18] = target: T3, prostate specific antigen (PSA, hK3); assay: Western blot, 1 µg inhibitor with 100 ng kallikrein, 1 h at 37 C
Method: (§1) Analysis of the inhibitory reaction between rACTs and the human kallikreins were analysed by Western Blot (data not shown). For each variants of ACT, 1 μg of inhibitor was incubated with 100 ng of either hK2 or hK3 during 1 hour at 37° C. under physiological conditions.

human kallikrein 2 (hK2) [19] = target: T2, human kallikrein 2 (hK2); assay: as above
Method: as §1

[20] = target: T5, human kallikrein 14 (hK14); assay: residual enzyme activity against [I]o/[E]o
[21] = target: T1, human plasma kallikrein (PK); assay: residual enzyme activity against [I]o/[E]o
human kallikrein 8 (hK8) [22] = target: T6, human kallikrein 8 (hK8); assay: residual enzyme activity against [I]o/[E]o
[23] = target: T7, human chymotrypsin (Chtr); assay: residual enzyme activity against [I]o/[E]o

T1 sequence (P03952 20-638 limits assumed): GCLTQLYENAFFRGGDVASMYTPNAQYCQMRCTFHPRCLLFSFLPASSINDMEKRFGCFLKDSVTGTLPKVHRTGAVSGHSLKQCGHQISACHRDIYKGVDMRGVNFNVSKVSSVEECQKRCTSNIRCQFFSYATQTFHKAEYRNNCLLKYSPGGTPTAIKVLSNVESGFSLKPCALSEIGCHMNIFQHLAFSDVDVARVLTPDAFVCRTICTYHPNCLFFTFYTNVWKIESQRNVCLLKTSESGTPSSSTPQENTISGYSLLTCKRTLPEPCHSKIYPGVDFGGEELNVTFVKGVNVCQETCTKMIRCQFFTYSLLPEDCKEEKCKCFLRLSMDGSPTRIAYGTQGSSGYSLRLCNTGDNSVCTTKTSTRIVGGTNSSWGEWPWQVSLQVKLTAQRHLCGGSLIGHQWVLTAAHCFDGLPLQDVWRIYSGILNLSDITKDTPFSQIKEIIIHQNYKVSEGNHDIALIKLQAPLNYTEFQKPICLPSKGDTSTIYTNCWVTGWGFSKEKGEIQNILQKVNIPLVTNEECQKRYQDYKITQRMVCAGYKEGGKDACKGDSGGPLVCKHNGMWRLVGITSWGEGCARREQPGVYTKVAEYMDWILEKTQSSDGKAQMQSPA

fold lower ka than with hK2 [1]: 45 fold | SI (stoichiometry of inhibition) (human kallikrein 2 (hK2) [2]): 9 | SI (stoichiometry of inhibition) [3]: 277 | kon (human kallikrein 2 (hK2) [4]): 8990 M⁻¹ s⁻¹ | kon [5]: 201 M⁻¹ s⁻¹ | INHIBITION % [6]: 0% | INHIBITION % [7]: 0% | INHIBITION % (human kallikrein 2 (hK2) [8]): 100% | INHIBITION % [9]: 36% | INHIBITION % (human kallikrein hK1): 0%
B1: rACT6.7 (other)
chain: MRGSHHHHHHSRHPNSPLDEENLTQENQDRGTHVDLGLASANVDFAFSLYKQLVLKAPDKNVIFSPLSISTALAFLSLGAHNTTLTEILKGLKFNLTETSEAEIHQSFQHLLRTLNQSSDELQLSMGNAMFVKEQLSLLDRFTEDAKRLYGSEAFATDFQDSAAAKKLINDYVKNGTRGKITDLIKDLDSQTMMVLVNYIFFKAKWEMPFDPQDTHQSRFYLSKKKWVMVPMMSLHHLTIPYFRDEELSCTVVELKYTGNASALFILPDQDKMEEVEAMLLPETLKRWRDSLEFREIGELYLPKFSISRDYNLNDILLQLGIEEAFTSKADLSGITGARNLAVSQVVHKAVLDVFEEGTEASAATAVKIKLRTTLVETRTIVRFNRPFLMIIVPTDTQNIFFMSKVTNPKQA
notes: recombinant ACT variant, RSL substrate peptide KLRTT; N-terminal His tag, E. coli TG1; also called MD67; MD 67

INHIBITION % [10]: 0% | INHIBITION % [11]: 100% | INHIBITION % [12]: 100% | INHIBITION % (human kallikrein 8 (hK8) [13]): ~25% | INHIBITION % (thrombin): 0% | INHIBITION % [14]: 98% | kon [15]: 287000 M⁻¹ s⁻¹ | kon [16]: 25900 M⁻¹ s⁻¹ | kon [17]: 86200 M⁻¹ s⁻¹ | binding result [18]: binds | binding result (human kallikrein 2 (hK2) [19]): binds | SI (stoichiometry of inhibition) [20]: 3.2 | SI (stoichiometry of inhibition) [21]: 4.6 | SI (stoichiometry of inhibition) (human kallikrein 8 (hK8) [22]): ~180 | SI (stoichiometry of inhibition) [23]: 1
B2: rACTPCI (other)
chain: B1 chain with K370T, L371F, T373S, T374A
notes: E. coli TG1, Ni-NTA purified; also called MDCI; MD CI
